These results are taken from patent US20240336909A1 (HARPOON THERAPEUTICS, published 2024).

Test [1] concerns the target T1, human EpCAM protein (human, UniProt P16422 24-265).
T1 construct: biotinylated in the Octet assays; also called hu EpCAM; biotinylated human EpCAM protein
T1 sequence (looked up): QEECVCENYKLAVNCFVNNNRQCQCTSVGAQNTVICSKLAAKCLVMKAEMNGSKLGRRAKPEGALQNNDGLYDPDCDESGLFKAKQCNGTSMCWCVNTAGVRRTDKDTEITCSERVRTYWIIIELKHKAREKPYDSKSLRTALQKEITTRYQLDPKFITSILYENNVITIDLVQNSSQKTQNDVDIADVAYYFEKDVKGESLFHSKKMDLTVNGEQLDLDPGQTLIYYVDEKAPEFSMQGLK
The experiment in a line: colorimetric ELISA. From the text:
(§1) Llamas were immunized with purified EpCAM protein expressed in Expi293 cells. A phage display library for expression of heavy variable antibody domains was constructed from circulating B cells. See van der Linden, de Geus, Stok, Bos,van Wassenaar, Verrips, and Frenken. 2000. J Immunol Methods 240:185-195. Phage clones were screened for binding to EpCAM by expressing anti-EpCAM proteins in E coli, preparing periplasmic extracts, and proteins were screened for human and cynomolgus EpCAM binding activity using a colorimetric ELISA.

The target of test [2] is T2, cynomolgus EpCAM protein (cynomolgus monkey).
T2 construct: biotinylated in the Octet assays; also called cy EpCAM; cynomolgus monkey EpCAM
T2 sequence (Q1WER1 24-265): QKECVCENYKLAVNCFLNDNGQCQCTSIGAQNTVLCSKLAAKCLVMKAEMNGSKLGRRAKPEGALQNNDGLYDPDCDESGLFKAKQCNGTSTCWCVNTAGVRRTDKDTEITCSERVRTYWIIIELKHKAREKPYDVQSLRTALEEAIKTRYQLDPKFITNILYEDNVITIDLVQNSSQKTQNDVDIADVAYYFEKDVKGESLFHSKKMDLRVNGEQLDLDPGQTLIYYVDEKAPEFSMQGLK
The experiment in a line: colorimetric ELISA.
From the text: as §1
(An ELISA detects its analyte on a solid surface through an enzyme-linked reagent.)

B1: Llama anti-EpCAM single domain antibody EPL78 (VHH)
VHH: QVQLQESGGGLVQPGGSLRLSCATSANRFNINVMGWYRQAPGQQRELVATINIGGSTDYADSVKGRFTISRDNAKNTVYLQLSDLKPEDTAVYYCNVKLRVSGPTGPNVYWGQGTQVTVSS
notes: E. coli periplasmic extract
Turning to B1, in test [1], the ELISA absorbance is 3.1 absorbance and the “Human EpCAM/Control” value came to 17 ratio. In test [2], the “Cynomolgus EpCAM/Control” value is 11 ratio and the ELISA absorbance came to 2 absorbance.

B2: Llama anti-EpCAM single domain antibody EPL145 (VHH)
VHH: QVQLQESGGGLVQAGGSLRLSCAASGFIFRAASMGWFRQSPGNERELVATVSSGGFTNYADSVKGRFTISRDNAKNTVYLQMNSLKPEDTAVYFCGATFVRSDGHHTIYGQGTQVTVSS
notes: E. coli periplasmic extract
On to B2, for which, in test [1], the ELISA absorbance turned out to be 0.6 absorbance and the “Human EpCAM/Control” value was 3 ratio. Moreover, in test [2], the “Cynomolgus EpCAM/Control” value amounted to 2 ratio and the ELISA absorbance worked out at 0.4 absorbance.

B3: Llama anti-EpCAM single domain antibody EPL90 (VHH)
VHH: QVQLQESGGGLVQAGGSLRLSCAASGFIFRAASMAWYRQSPGNERELVASISSGAFTNYADSVKARFTISRDNAKNTVYLQMNSLKPEDTAVYFCGATFLRSDGHHTINGQGTQVTVSS
notes: E. coli periplasmic extract
B3: in test [1], the ELISA absorbance came to 1.6 absorbance and the “Human EpCAM/Control” value came out at 10 ratio. For the same molecule, in test [2], the “Cynomolgus EpCAM/Control” value was found to be 10 ratio and the ELISA absorbance turned out to be 1.7 absorbance.

B4: Llama anti-EpCAM single domain antibody EPL126 (VHH)
VHH: QVQLQESGGGLVQAGGSLRLSCAASGFIFRAASMGWYRQSPGNERELVATINSGGFTNYADSVKGRFTISRDNAKNTGYLQMNSLKPEDTAVYFCAATFLRSDGQPPIWGQGTQVTVSS
notes: E. coli periplasmic extract
As for B4, in test [1], the ELISA absorbance is 3.4 absorbance and the “Human EpCAM/Control” value stood at 5 ratio. For the same molecule, in test [2], the “Cynomolgus EpCAM/Control” value was 4 ratio and the ELISA absorbance was 2.8 absorbance.

B5: Llama anti-EpCAM single domain antibody EPL164 (VHH)
VHH: QVQLQESGGGLVQAGGSLRLSCAASGFIFRAASMDWYRQSPGTQPELVATISSTGFTNYANSVKGRFTISRDNAKNTVYLQMNSLKPEDTAVYFCGATFLRSDGQHSIYGQGTQVTVSS
notes: E. coli periplasmic extract
In the case of B5, in test [1], the ELISA absorbance is 0.6 absorbance and the “Human EpCAM/Control” value turned out to be 7 ratio. In test [2], the “Cynomolgus EpCAM/Control” value worked out at 34 ratio and the ELISA absorbance was found to be 2.8 absorbance.

B6: Llama anti-EpCAM single domain antibody EPL118 (VHH)
VHH: QVQLQESGGGLVQAGGSLRLSCAASGFIFRAASMGWFRQSPGNERELVATVSSGDFTNYADSVKGRFTISRDNAKNTVYLQMNSLKPEDTAVYFCGATFVRSDGHHTIYGQGTQVTVSS
notes: E. coli periplasmic extract
As to B6, in test [1], the ELISA absorbance came out at 3.4 absorbance and the “Human EpCAM/Control” value turned out to be 5 ratio. Besides, in test [2], the “Cynomolgus EpCAM/Control” value worked out at 4 ratio and the ELISA absorbance is 2.9 absorbance.

B7: Llama anti-EpCAM single domain antibody EPL138 (VHH)
VHH: QVQLQESGGGLVQAGGSLRLSCAASGFIFRAASMDWYRQFPGNERESIATISSGGFTNYADSVKGRFTISRDNAKNTVYLQMNSLKPEDTAVYFCGATFLRSDGHHTINGQGTQVTVSS
notes: E. coli periplasmic extract
Take B7: in test [1], the ELISA absorbance turned out to be 3.1 absorbance and the “Human EpCAM/Control” value amounted to 3 ratio. In addition, in test [2], the “Cynomolgus EpCAM/Control” value turned out to be 3 ratio and the ELISA absorbance was found to be 2.7 absorbance.

B8: Llama anti-EpCAM single domain antibody EPL49 (VHH)
VHH: QVQLQESGGGLVQAGGSLRLSCAPSGRTSSIFGMGWFRQAPGKEREFVASINWSGGSTSYADSVKGRFTISRDNAKNEMYLQMNSLKFEDTAVYVCAAAVLTNKPSWNFWGQGTQVTVSS
notes: E. coli periplasmic extract
As to B8, in test [1], the ELISA absorbance was 1.1 absorbance and the “Human EpCAM/Control” value is 8 ratio. In test [2], the “Cynomolgus EpCAM/Control” value worked out at 4 ratio and the ELISA absorbance is 0.6 absorbance.

B9: Llama anti-EpCAM single domain antibody EPL60 (VHH)
VHH: QVQLQESGGGLVQAGGSLRLSCAASEYILSMYRMAWYRQAPGKVRELVADMSSGGTTNYADFVKGRFTISRDNDRNTVYLQMNRLQPEDTAAYYCNVAGRTGPPSYDAFNNWGQGTQVTVSS
notes: E. coli periplasmic extract
In the case of B9, in test [1], the ELISA absorbance amounted to 1.1 absorbance and the “Human EpCAM/Control” value came to 10 ratio. In test [2], the “Cynomolgus EpCAM/Control” value was found to be 33 ratio and the ELISA absorbance turned out to be 3.5 absorbance.

B10: Llama anti-EpCAM single domain antibody EPL156 (VHH)
VHH: QVQLQESGGGLVQPGASLRVSCAASEYILSMYRMAWYRQAPGKVRELVADMSSGGTTNYADFVKGRFTISRDNDRNTVYLQMNRLQPEDTAAYYCNVAGRTGPPSYDAFNNWGQGTQVTVSS
notes: E. coli periplasmic extract
B10: in test [1], the ELISA absorbance was 3.6 absorbance and the “Human EpCAM/Control” value is 16 ratio. In addition, in test [2], the “Cynomolgus EpCAM/Control” value turned out to be 17 ratio and the ELISA absorbance is 4 absorbance.

B11: Llama anti-EpCAM single domain antibody EPL58 (VHH)
VHH: QVQLQESGGGLVQAGGSLRLSCAASGPIFSDTIRTMGWYRQAAGKQRELVATIASFPSRTNYVDSVKGRFTISRDIAKNTVYLQMDSLKPEDTAVYYCNVDLASIPTKTYWGQGTQVTVSS
notes: E. coli periplasmic extract
Consider B11, for which, in test [1], the ELISA absorbance was found to be 1.1 absorbance and the “Human EpCAM/Control” value was determined as 8 ratio. Moreover, in test [2], the “Cynomolgus EpCAM/Control” value was 4 ratio and the ELISA absorbance was 0.5 absorbance.

B12: Llama anti-EpCAM single domain antibody EPL159 (VHH)
VHH: QVQLQESGGGLVQAGGSLRLSCAASGFAFGNHWMYWYRQAPGRGRELVASISSGGSTNYVDSVKGRFTISRDNARNTVYLQMYSLKPEDTAVYYCGTSDNWGQGTQVTVSS
notes: E. coli periplasmic extract
With B12, in test [2], the “Cynomolgus EpCAM/Control” value was 2 ratio and the ELISA absorbance was found to be 0.2 absorbance.

B13: Llama anti-EpCAM single domain antibody EPL74 (VHH)
VHH: QVQLQESGGGLVQAGGSLRLSCAASGSIFGINAMGWYRQAPGKQRESVAFITIGGNTNYLDSVKGRFTISRDNAKNTVYLQMNGLKPEDTAVYYCNTNPPLILTAGGLYWGQGTQVTVSS
notes: E. coli periplasmic extract
B13: in test [1], the ELISA absorbance was found to be 1.4 absorbance and the “Human EpCAM/Control” value came out at 10 ratio. In test [2], the “Cynomolgus EpCAM/Control” value was determined as 5 ratio and the ELISA absorbance came out at 0.7 absorbance.

B14: Llama anti-EpCAM single domain antibody EPL10 (VHH)
VHH: QVQLQESGGGLVQAGGSLRLSCAASGSVFRANVMGWYRQAPGKQHELVARIDPGGTTTYADPVKGRFTISRDNAKKTVYLQMNSLKPDDTAVYYCNAIILLSGGPKDYWGQGTQVTVSS
notes: E. coli periplasmic extract
Consider B14, for which, in test [1], the ELISA absorbance is 2.7 absorbance and the “Human EpCAM/Control” value was 12 ratio. Moreover, in test [2], the “Cynomolgus EpCAM/Control” value is 9 ratio and the ELISA absorbance turned out to be 2 absorbance.

B15: Llama anti-EpCAM single domain antibody EPL2 (VHH)
VHH: QVQLQESGGGLVQPGGSLRLSCAASESISSFIAVGWYRQAPGKERELVAGINRSGFTYYTDSVKGRFSISRDNAKNTVLLQMTSLKPEDTAVYYCNAGGLYFSNAYTQGDYWGQGTQVTVSS
notes: E. coli periplasmic extract
In the case of B15, in test [1], the ELISA absorbance was 2.2 absorbance and the “Human EpCAM/Control” value turned out to be 15 ratio. In addition, in test [2], the “Cynomolgus EpCAM/Control” value was found to be 24 ratio and the ELISA absorbance stood at 3.6 absorbance.

B16: Llama anti-EpCAM single domain antibody EPL43 (VHH)
VHH: QVQLQESGGGLVQTGGSLRLSCAASESISSFIAVGWYRQAPGKERELVAGINRSGFTYYTDSVKGRFSISRDNAKNTVLLQMTSLKPEDTAVYYCNAGGLYFSNAYTQGDYWGQGTQVTVSS
notes: E. coli periplasmic extract
In the case of B16, in test [1], the ELISA absorbance is 1.8 absorbance and the “Human EpCAM/Control” value turned out to be 13 ratio. In test [2], the “Cynomolgus EpCAM/Control” value came to 27 ratio and the ELISA absorbance was 3.8 absorbance.
